Legend:
[1] = biological target: RSV/A/A2 fusion protein F on the virus (respiratory syncytial virus RSV/A/A2, UniProt P03420 26-574); assay: cell-based or functional assay
[2] = biological target: T1, RSV/A/A2 pre-fusion F protein (respiratory syncytial virus RSV/A/A2, UniProt P03420 26-109); assay: BLI (Octet RED96), antibody captured on AHC sensor; reference MEDI8897
T1 construct: also called RSV A2 pre-fusion F protein; pre-F of RSV type A

[3] = biological target: T2, RSV/B/B9320 pre-fusion F protein (respiratory syncytial virus RSV/B/B9320); assay: as above
T2 construct: also called pre-F of RSV type B; recombinant DS-Cav1

[4] = biological target: T1, RSV/A/A2 pre-fusion F protein; assay: BLI (Octet RED96), antibody captured on AHC sensor; reference Palivizumab
[5] = biological target: T2, RSV/B/B9320 pre-fusion F protein; assay: as above

B1: 4F1En1 (VH-S75R) (antibody, V domains shown)
VH: QVQLVESGGGVVQPGRSLRLSCAASGFSFYSYSVHWVRQAPGKGLEWVADVVYDGNHQHYTDSVKGRFTISRDTRKNTVYLQMGSLRAEDTALYYCTARSLVITLAGAGRDDYWGQGTTVTVSS
VL: DIVMTQSPLSLPVTPGEPASISCRSSQSLLHSNGYTYLDWYLQKPGQSPQLLIFLGSSRASGVPDRFSGSGSGTDFTLKISRVEAEDVGVYYCVQDLQTSLTFGGGTKLEIKR
notes: It is a human IgG captured through Fc
IC50 against RSV/A2, fold lower than palivizumab [1]: 62 fold | neutralization potency for RSV/A/A2 strain, fold against 4F1-WT [1]: 3 times | fold higher affinity compared to MEDI8897 [2]: ≥ 10 fold | fold higher binding affinity compared to MEDI8897 [3]: ≥ 100 fold | fold higher affinity compared to PVZ [4]: ≥ 10 fold | fold higher binding affinity compared to PVZ [5]: ≥ 100 fold

Reference: US20240409620A1 (CENTER FOR EXCELLENCE IN MOLECULAR CELL SCIENCE CHINESE …, published 2024)
